The results in this text go back to patent US20120021993A1 (AJOU UNIVERSITY INDUSTRY ACADEMIC COOPERATION FOUNDATION, published 2012).

Assay [1] deals with T1, TNFα, extracellular domain (amino acid residue 1-157), 6xHis tag (human, UniProt P01375 57-233).
T1 construct: extracellular domain; Expressed in E. coli; The printed residues 1-157 seem to count on the soluble form, not on the precursor; the same molecule is used for it here; also called human TNFα; tumor necrosis factor alpha
The assay is described as follows: ELISA, homo-dimer against monomer.

Assay [2] deals with T1, TNFα, extracellular domain (amino acid …). The assay is described as follows: ELISA, target coated on the plate. (An ELISA detects its analyte on a solid surface through an enzyme-linked reagent.)
Assay [3] concerns the target T2, DcR1 (UniProt O14798 26-221, limits assumed).
T2 sequence (looked up): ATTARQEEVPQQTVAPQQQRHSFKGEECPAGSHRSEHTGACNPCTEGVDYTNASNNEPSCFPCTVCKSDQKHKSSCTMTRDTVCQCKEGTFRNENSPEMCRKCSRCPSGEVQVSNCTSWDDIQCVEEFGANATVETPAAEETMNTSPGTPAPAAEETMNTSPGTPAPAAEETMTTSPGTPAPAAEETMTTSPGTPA
The assay is described as follows: ELISA, coated target, single binder concentration not given, A405.

Assay [4] addresses T1, TNFα, extracellular domain (amino acid …). Described as above.
The target of assay [5] is T3, human-derived cell death receptor 4, extracellular domain (amino acid residues 1-216), 6xHis tag (human, UniProt O00220 24-239).
T3 construct: extracellular domain; Expressed in E. coli; biotinylated for sorting and flow cytometry; residues 1-216; also called DR4; TRAIL-receptor 1
The assay is described as above.

Assay [6] deals with T4, DcR2 (UniProt Q9UBN6 56-211, limits assumed).
T4 sequence (looked up): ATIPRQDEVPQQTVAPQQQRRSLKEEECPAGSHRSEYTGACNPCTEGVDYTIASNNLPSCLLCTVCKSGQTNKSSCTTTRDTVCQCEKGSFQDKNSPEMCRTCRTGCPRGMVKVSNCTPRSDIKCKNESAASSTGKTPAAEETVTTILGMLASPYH
The assay is described as above.

Assay [7] has as its target T1, TNFα, extracellular domain (amino acid …). The assay is described as follows: cell-based or functional assay.
For assay [8] the target is unchanged. The assay is described as follows: ELISA, coated target, A405. The protocol:
(§1) In order to measure the affinity and cross reactivity of the anti-DR4, -DR5 and -TNFα protein scaffold variants based on the Kringle domain structure to the target molecules, an enzyme-linked immunosorbent assay (ELISA) was performed. The target molecules DR4, DR5, TNFα and DcR1, DcR2 were attached to a 96 well EIA/RIA plate (COSTARCorning In., USA) by its reaction at 37° C. for 1 hour, and washed three times with 0.1% PBST (0.1% Tween20, pH 7.4, 137 mM NaCl, 10 mM Phosphate, 2.7 mM KCl, SIGMA-ALDRICH Co., USA) for 10 minutes. The target molecules were attached for 1 hour to a 96 well EIA/RIA plate in 1% PBSB (1% BSA, pH 7.4, 137 mM NaCl, 10 mM Phosphate, 2.7 mM KCl, SIGMA-ALDRICH Co., USA), and then washed three times with 0.1% PBST (0.1% Tween 20, pH 7.4, 137 mM NaCl, 10 mM Phosphate, 2.7 mM KCl, SIGMA-ALDRICH Co., USA) for 10 minutes. Then, the anti-DR4, -DR5 and -TNFα Kringle domain variants were bound, and washed three times with 0.1% PBST for 10 minutes. The anti-DR4, -DR5 and -TNFα Kringle domain variants were primarily bound to mouse-derived anti-c-myc 9e10 mAb (Ig Therapy, Korea), and secondarily bound to alkaline phosphatase (AP)-conjugated anti-mouse mAb (Sigma). Each of the Kringle domain variants was reacted with […] (pNPP, Sigma-aldrich Co., USA) and quantified at an absorbance of 405 nm.

In assay [9] the target is T2, DcR1. Briefly: yeast display, flow cytometry MFI. In general terms: A flow cytometer gives signals particle by particle.
For assay [10], the target named is T4, DcR2. The assay is described as follows: yeast display, flow cytometry MFI.
Assay [11] deals with T1, TNFα, extracellular domain (amino acid …). The assay is described as follows: ELISA, coated target, A405. The source holds these as a separate data set.
Assay [12] shares this target. The assay is described as follows: affinity ELISA, target coated on the plate. As to the method: as §1
In order to analyze the affinities of the Fc-fused anti-DR4, -DR5 and -TNFα Kringle domains to target molecules, the affinities of the Fc-fused anti-DR4, -DR5 and -TNFα Kringle domains to the target molecules were analyzed using ELISA, as described in Example 8.

Assay [13] concerns the target T5, human-derived cell death receptor 5, extracellular domain (amino acid residues 1-130), 6xHis tag (human, UniProt O14763 56-210).
T5 construct: extracellular domain; Expressed in E. coli; biotinylated for sorting and flow cytometry; also called DR5; TRAIL-receptor 2
The assay is described as follows: ELISA, coated target, A405 [upper panel]. As to the method:
as §1

For assay [14], the target named is T5, human-derived cell death receptor 5, …. The assay is described as follows: ELISA on coated DR5, KD506 alone, A405.
Another assay has as its target cell surface DR5 (human, UniProt O14763 56-440). Briefly: cell-based or functional assay.
For the next assay, the target named is T6, cell surface DR4 (human, UniProt O00220 24-468).
T6 construct: whole, on cells; also called DR4 on cell surfaces
The assay is described as follows: flow cytometry on BJAB(DR5-/-) cells, MFI.

Assay [15] concerns the target T5, human-derived cell death receptor 5, …. The assay is described as follows: competitive ELISA on coated DR5, biotinylated KD506 with TRAIL (amount not given), A405.
For assay [16] the target is unchanged. The assay is described as follows: ELISA, coated DR5, A405.
Assay [17] shares this target. Briefly: ELISA, coated target, A405.
Assay [18] addresses T2, DcR1. The assay is described as follows: yeast display, flow cytometry MFI [panel KD506].
Assay [19] addresses T3, human-derived cell death receptor 4, …. The assay is described as follows: yeast display, flow cytometry MFI [panel KD506].
Assay [20] has as its target T4, DcR2. The assay is described as follows: yeast display, flow cytometry MFI [panel KD506].

Usually EC50 (read off the curve) stands for the midpoint of the concentration-response curve.

Read-outs that look alike come from different tables or passages of the source.

T1 sequence (P01375 other isoform, or with tags, fused parts or gaps limits assumed): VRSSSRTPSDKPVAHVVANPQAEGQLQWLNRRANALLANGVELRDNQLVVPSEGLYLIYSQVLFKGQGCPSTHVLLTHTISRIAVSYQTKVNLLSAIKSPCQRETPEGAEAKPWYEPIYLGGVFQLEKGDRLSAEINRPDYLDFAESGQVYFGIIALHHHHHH

B1: anti-TNFα KDT26 homo-dimer (designed binder)
chain: CPRDQGNQYDGFRYGTYRGHRCQHWTRDEPHFHGFGHQHKYTYRHKKNYCRNPDARPRPWCFTHRYQNRNELCHQPRCGGGGSGGGGSGGGGSGGGGSCPRDQGNQYDGFRYGTYRGHRCQHWTRDEPHFHGFGHQHKYTYRHKKNYCRNPDARPRPWCFTHRYQNRNELCHQPRC
B1: the “fold increase of affinity against the monomer” value in [1] was ~10 fold. Also, the affinity value in [2] was 8 nM.

B2: PgnKD2 (other, human, UniProt P00747 184-262, looked up)
single chain: ECMHCSGENYDGKISKTMSGLECQAWDSQSPHAHGYIPSKFPNKNLKKNYCRNPDRELRPWCFTTDPNKRWELCDIPRC
notes: isolated Kringle domain 2; negative control; also called wild-type plasminogen Kringle domain 2
For B2, the binding result (with DcR1 [3]; in [4]; in assay [5]; with DcR2 [6]) was “no binding” each time.

B3: KDT26 (designed binder)
chain: CPRDQGNQYDGFRYGTYRGHRCQHWTRDEPHFHGFGHQHKYTYRHKKNYCRNPDARPRPWCFTHRYQNRNELCHQPRC
notes: Soluble monomer from Pichia pastoris; also called KRT26; anti-TNFα Kringle domain variant KDT26; not shown: C-terminal myc tag-6xHis tag of pPICZaA
With B3, the “IC50 (50% inhibiting concentration) of TNFα-mediated cell death, WEHI 164, MTT assay” value in [7] was 780 nM. The 50% effective concentration (EC50 (read off the curve)) in assay [8] and in assay [11] was ~80 nM in each case. In addition, the binding result with DcR1 [9] and with DcR2 [10] was “no binding” throughout.

B4: KDT26-Fc (Fc fusion)
chain: B3 chain
notes: Disulfide-linked dimer from Pichia pastoris; also called KRT26-Fc; Fc-fused anti-TNFα Kringle domain KDT26; not shown: Fc domain region from a hinge of human immunoglobulin G1
For B4, the affinity in assay [12] stood at 3.8 nM. For the same molecule, the “IC50 (50% inhibiting concentration) of TNFα-mediated cell death, WEHI 164, MTT assay” value in assay [7] was 5.2 nM.

B5: KD506 (designed binder)
chain: CPEDRGHEYDGDGDKTNRGHGCQYWDQNKPHHHGHRDKDKFKHRIKKNYCRNPDYETGPWCFTNRYRNKNELCHEPRC
notes: Soluble monomer from Pichia pastoris; also called anti-DR5 Kringle domain variant KD506; KR506; not shown: C-terminal myc tag-6xHis tag of pPICZaA
For the molecule B5, the “EC50 (read off the curve)” value in [13] was ~300 nM; in assay [14], ~100 nM; in assay [15], ~100 nM; in assay [16] it was ~300 nM; in assay [17], ~300 nM. In the assay with cell surface DR5, the “EC50 (a concentration of protein causing a 50% cell death), HL60, MTT assay” value was 210 nM. For the same molecule, the “EC50 (a concentration of protein causing a 50% cell death), Jurkat, MTT assay” value in the assay with cell surface DR5 was found to be 200 nM. Moreover, the binding result (with cell surface DR4; with DcR1 [18]; in assay [19]; in the assay with DcR2 [20]) was “no binding” throughout.
